Paper PMC7305210, “Mitochondria-adaptor TRAK1 promotes kinesin-1 driven transport in crowded environments” (Nature Communications, 2020)

Biological target: microtubules polymerized from porcine tubulin (porcine, UniProt P02550 1-451; Q767L7 1-444, Alexa Fluor 647 NHS ester on 20% of the tubulin in fluorescently labeled microtubules | Alexa Fluor 647 NHS ester on 20% of the tubulin in fluorescently labeled microtubules)
Assay: single-molecule TIRF microscopy, two-colour co-movement on immobilised microtubules; KIF5B construct and 175 nM TRAK1 construct pre-incubated 10 min on ice, flushed onto bare immobilised microtubules in motility buffer with 1 mM Mg-ATP; room temperature; for the complexes traces of the mCherry-TRAK1 channel analysed
Details: both partners purified

Binder | median interaction time with microtubules [s]
KIF5B-GFP-mCherry-TRAK1∆ complex (complex, KIF5B, kinesin-1 heavy chain, human, amino acids 1-963; as m1; TRAK1, stop codon after amino acid 635; as m6; also called truncated KIF5B-GFP-mCherry-TRAK1∆ complex; source: the two purified proteins (m1 from SF9, m6 from HEK293T) pre-incubated 10 min on ice; not shown: GFP, C-terminal, kept; 6xHis, C-terminal, cleaved; mCherry, N-terminal, kept; TwinStrep-FLAG-Halo, N-terminal, cleaved) chain 1: MADLAECNIKVMCRFRPLNESEVNRGDKYIAKFQGEDTVVIASKPYAFDRVFQSSTSQEQVYNDCAKKIVKDVLEGYNGTIFAYGQTSSGKTHTMEGKLHDPEGMGIIPRIVQDIFNYIYSMDENLEFHIKVSYFEIYLDKIRDLLDVSKTNLSVHEDKNRVPYVKGCTERFVCSPDEVMDTIDEGKSNRHVAVTNMNEHSSRSHSIFLINVKQENTQTEQKLSGKLYLVDLAGSEKVSKTGAEGAVLDEAKNINKSLSALGNVISALAEGSTYVPYRDSKMTRILQDSLGGNCRTTIVICCSPSSYNESETKSTLLFGQRAKTIKNTVCVNVELTAEQWKKKYEKEKEKNKILRNTIQWLENELNRWRNGETVPIDEQFDKEKANLEAFTVDKDITLTNDKPATAIGVIGNFTDAERRKCEEEIAKLYKQLDDKDEEINQQSQLVEKLKTQMLDQEELLASTRRDQDNMQAELNRLQAENDASKEEVKEVLQALEELAVNYDQKSQEVEDKTKEYELLSDELNQKSATLASIDAELQKLKEMTNHQKKRAAEMMASLLKDLAEIGIAVGNNDVKQPEGTGMIDEEFTVARLYISKMKSEVKTMVKRCKQLESTQTESNKKMEENEKELAACQLRISQHEAKIKSLTEYLQNVEQKKRQLEESVDALSEELVQLRAQEKVHEMEKEHLNKVQTANEVKQAVEQQIQSHRETHQKQISSLRDEVEAKAKLITDLQDQNQKMMLEQERLRVEHEKLKATDQEKSRKLHELTVMQDRREQARQDLKGLEETVAKELQTLHNLRKLFVQDLATRVKKSAEIDSDDTGGSAAQKQKISFLENNLEQLTKVHKQLVRDNADLRCELPKLEKRLRATAERVKALESALKEAKENASRDRKRYQQEVDRIKEAVRSKNMARRGHSAQIAKPIRPGQHPAASPTHPSAIRGGGAFVQNSQPVAVRGGGGKQV chain 2: MALVFQFGQPVRAQPLPGLCHGKLIRTNACDVCNSTDLPEVEIISLLEEQLPHYKLRADTIYGYDHDDWLHTPLISPDANIDLTTEQIEETLKYFLLCAERVGQMTKTYNDIDAVTRLLEEKERDLELAARIGQSLLKKNKTLTERNELLEEQVEHIREEVSQLRHELSMKDELLQFYTSAAEESEPESVCSTPLKRNESSSSVQNYFHLDSLQKKLKDLEEENVVLRSEASQLKTETITYEEKEQQLVNDCVKELRDANVQIASISEELAKKTEDAARQQEEITHLLSQIVDLQKKAKACAVENEELVQHLGAAKDAQRQLTAELRELEDKYAECMEMLHEAQEELKNLRNKTMPNTTSRRYHSLGLFPMDSLAAEIEGTMRKELQLEEAESPDITHQKRVFETVRNINQVVKQRSLTPSPMNIPGSNQSSAMNSLLSSCVSTPRSSFYGSDIGNVVLDNKTNSIILETEAADLGNDERSKKPGTPGTPGSHDLETALRRLSLRRENYLSERRFFEEEQERKLQELAEKGELRSGSLTPTESIMSLGTHSRFSEFTGFSGMSFSSRSYLPEKLQIVKPLEGSATLHHWQQLAQPHLGGILDPRPGVVTKGFRTLDVDLDEVYCLNDFEEDDTGD | 5.33
KIF5B∆-GFP in complex with mCherry-TRAK1∆ (complex, KIF5B, kinesin-1 heavy chain, human, amino acids 1-905; as m2; TRAK1, stop codon after amino acid 635; as m6; source: the two purified proteins (m2 from SF9, m6 from HEK293T) pre-incubated 10 min on ice; not shown: GFP, C-terminal, kept; 6xHis, C-terminal, cleaved; mCherry, N-terminal, kept; TwinStrep-FLAG-Halo, N-terminal, cleaved) chain 1: MADLAECNIKVMCRFRPLNESEVNRGDKYIAKFQGEDTVVIASKPYAFDRVFQSSTSQEQVYNDCAKKIVKDVLEGYNGTIFAYGQTSSGKTHTMEGKLHDPEGMGIIPRIVQDIFNYIYSMDENLEFHIKVSYFEIYLDKIRDLLDVSKTNLSVHEDKNRVPYVKGCTERFVCSPDEVMDTIDEGKSNRHVAVTNMNEHSSRSHSIFLINVKQENTQTEQKLSGKLYLVDLAGSEKVSKTGAEGAVLDEAKNINKSLSALGNVISALAEGSTYVPYRDSKMTRILQDSLGGNCRTTIVICCSPSSYNESETKSTLLFGQRAKTIKNTVCVNVELTAEQWKKKYEKEKEKNKILRNTIQWLENELNRWRNGETVPIDEQFDKEKANLEAFTVDKDITLTNDKPATAIGVIGNFTDAERRKCEEEIAKLYKQLDDKDEEINQQSQLVEKLKTQMLDQEELLASTRRDQDNMQAELNRLQAENDASKEEVKEVLQALEELAVNYDQKSQEVEDKTKEYELLSDELNQKSATLASIDAELQKLKEMTNHQKKRAAEMMASLLKDLAEIGIAVGNNDVKQPEGTGMIDEEFTVARLYISKMKSEVKTMVKRCKQLESTQTESNKKMEENEKELAACQLRISQHEAKIKSLTEYLQNVEQKKRQLEESVDALSEELVQLRAQEKVHEMEKEHLNKVQTANEVKQAVEQQIQSHRETHQKQISSLRDEVEAKAKLITDLQDQNQKMMLEQERLRVEHEKLKATDQEKSRKLHELTVMQDRREQARQDLKGLEETVAKELQTLHNLRKLFVQDLATRVKKSAEIDSDDTGGSAAQKQKISFLENNLEQLTKVHKQLVRDNADLRCELPKLEKRLRATAERVKALESALKEAKENASRDRKRYQQEVDRIKEA chain 2: MALVFQFGQPVRAQPLPGLCHGKLIRTNACDVCNSTDLPEVEIISLLEEQLPHYKLRADTIYGYDHDDWLHTPLISPDANIDLTTEQIEETLKYFLLCAERVGQMTKTYNDIDAVTRLLEEKERDLELAARIGQSLLKKNKTLTERNELLEEQVEHIREEVSQLRHELSMKDELLQFYTSAAEESEPESVCSTPLKRNESSSSVQNYFHLDSLQKKLKDLEEENVVLRSEASQLKTETITYEEKEQQLVNDCVKELRDANVQIASISEELAKKTEDAARQQEEITHLLSQIVDLQKKAKACAVENEELVQHLGAAKDAQRQLTAELRELEDKYAECMEMLHEAQEELKNLRNKTMPNTTSRRYHSLGLFPMDSLAAEIEGTMRKELQLEEAESPDITHQKRVFETVRNINQVVKQRSLTPSPMNIPGSNQSSAMNSLLSSCVSTPRSSFYGSDIGNVVLDNKTNSIILETEAADLGNDERSKKPGTPGTPGSHDLETALRRLSLRRENYLSERRFFEEEQERKLQELAEKGELRSGSLTPTESIMSLGTHSRFSEFTGFSGMSFSSRSYLPEKLQIVKPLEGSATLHHWQQLAQPHLGGILDPRPGVVTKGFRTLDVDLDEVYCLNDFEEDDTGD | 2.22
KIF5B∆-GFP in complex with mCherry-TRAK1 (complex, KIF5B, kinesin-1 heavy chain, human, amino acids 1-905; as m2; TRAK1, cDNA KIAA1042; as m5; also called KIF5B∆-GFP-mCherry-TRAK1 complex; KIF5B∆-TRAK1 transport complex; source: the two purified proteins (m2 from SF9, m5 from HEK293T) pre-incubated 10 min on ice; not shown: GFP, C-terminal, kept; 6xHis, C-terminal, cleaved; mCherry, N-terminal, kept; TwinStrep-FLAG-Halo, N-terminal, cleaved; …) chain 1: MADLAECNIKVMCRFRPLNESEVNRGDKYIAKFQGEDTVVIASKPYAFDRVFQSSTSQEQVYNDCAKKIVKDVLEGYNGTIFAYGQTSSGKTHTMEGKLHDPEGMGIIPRIVQDIFNYIYSMDENLEFHIKVSYFEIYLDKIRDLLDVSKTNLSVHEDKNRVPYVKGCTERFVCSPDEVMDTIDEGKSNRHVAVTNMNEHSSRSHSIFLINVKQENTQTEQKLSGKLYLVDLAGSEKVSKTGAEGAVLDEAKNINKSLSALGNVISALAEGSTYVPYRDSKMTRILQDSLGGNCRTTIVICCSPSSYNESETKSTLLFGQRAKTIKNTVCVNVELTAEQWKKKYEKEKEKNKILRNTIQWLENELNRWRNGETVPIDEQFDKEKANLEAFTVDKDITLTNDKPATAIGVIGNFTDAERRKCEEEIAKLYKQLDDKDEEINQQSQLVEKLKTQMLDQEELLASTRRDQDNMQAELNRLQAENDASKEEVKEVLQALEELAVNYDQKSQEVEDKTKEYELLSDELNQKSATLASIDAELQKLKEMTNHQKKRAAEMMASLLKDLAEIGIAVGNNDVKQPEGTGMIDEEFTVARLYISKMKSEVKTMVKRCKQLESTQTESNKKMEENEKELAACQLRISQHEAKIKSLTEYLQNVEQKKRQLEESVDALSEELVQLRAQEKVHEMEKEHLNKVQTANEVKQAVEQQIQSHRETHQKQISSLRDEVEAKAKLITDLQDQNQKMMLEQERLRVEHEKLKATDQEKSRKLHELTVMQDRREQARQDLKGLEETVAKELQTLHNLRKLFVQDLATRVKKSAEIDSDDTGGSAAQKQKISFLENNLEQLTKVHKQLVRDNADLRCELPKLEKRLRATAERVKALESALKEAKENASRDRKRYQQEVDRIKEA chain 2: MALVFQFGQPVRAQPLPGLCHGKLIRTNACDVCNSTDLPEVEIISLLEEQLPHYKLRADTIYGYDHDDWLHTPLISPDANIDLTTEQIEETLKYFLLCAERVGQMTKTYNDIDAVTRLLEEKERDLELAARIGQSLLKKNKTLTERNELLEEQVEHIREEVSQLRHELSMKDELLQFYTSAAEESEPESVCSTPLKRNESSSSVQNYFHLDSLQKKLKDLEEENVVLRSEASQLKTETITYEEKEQQLVNDCVKELRDANVQIASISEELAKKTEDAARQQEEITHLLSQIVDLQKKAKACAVENEELVQHLGAAKDAQRQLTAELRELEDKYAECMEMLHEAQEELKNLRNKTMPNTTSRRYHSLGLFPMDSLAAEIEGTMRKELQLEEAESPDITHQKRVFETVRNINQVVKQRSLTPSPMNIPGSNQSSAMNSLLSSCVSTPRSSFYGSDIGNVVLDNKTNSIILETEAADLGNDERSKKPGTPGTPGSHDLETALRRLSLRRENYLSERRFFEEEQERKLQELAEKGELRSGSLTPTESIMSLGTHSRFSEFTGFSGMSFSSRSYLPEKLQIVKPLEGSATLHHWQQLAQPHLGGILDPRPGVVTKGFRTLDVDLDEVYCLNDFEEDDTGDHISLPRLATSTPVQHPETSAHHPGKCMSQTNSTFTFTTCRILHPSDELTRVTPSLNSAPTPACGSTSHLKSTPVATPCTPRRLSLAESFTNTRESTTTMSTSLGLVWLLKERGISAAVYDPQSWDRAGRGSLLHSYTPKMAVIPSTPPNSPMQTPTSSPPSFEFKCTSPPYDNFLASKPASSILREVREKNVRSSESQTDVSVSNLNLVDKVRRFGVAKVVNSGRAHVPTLTEEQGPLLCGPPGPAPALVPRGLVPEGLPLRCPTVTSAIGGLQLNSGIRRNRSFPTMVGSSMQMKAPVTLTSGILMGAKLSKQTSLR | 12.2
